Data published in the Human Domainome abundance scans (Beltran et al. 2025).
± gives the uncertainty stated by the source.

B1: Unconventional myosin-Ie, residues 1051 to 1108; numbered along this chain, Q12965 (parent)
chain: PQVPQCKALYAYDAQDTDELSFNANDIIDIIKEDPSGWWTGRLRGKQGLFPNNYVTKI

Variants of: B1
Experiment: abundance fitness (aPCA) (normalised: wild type 0, dead -1); higher = more abundant; growth selection in yeast, the domain comes from the species named
Settings: Homo sapiens

Variant	abundance fitness
PQVPQCKALYAYDAQDDDELSFNANDIIDIIKEDPSGWWTGRLRGKQGLFPNNYVTKI	-0.007 ± 0.078
PQVPQCKALYAYDAQDTDELSFNANDIIDIIKEDPSGWWTGRLRGKQGDFPNNYVTKI	-0.319 ± 0.094
PQVPQCKALYAYDAQDTDELSFNANDQIDIIKEDPSGWWTGRLRGKQGLFPNNYVTKI	-0.327 ± 0.077
PQVPQCKALYAYNAQDTDELSFNANDIIDIIKEDPSGWWTGRLRGKQGLFPNNYVTKI	-0.084 ± 0.094
PQVPQCKALYAYDAQDTDELSFNANDIIDIIKEDPSGWWTGRLRGKQGLFPVNYVTKI	-0.068 ± 0.047
PQVPQCKALYAYDAQDTDSLSFNANDIIDIIKEDPSGWWTGRLRGKQGLFPNNYVTKI	-0.159 ± 0.054
PQVPFCKALYAYDAQDTDELSFNANDIIDIIKEDPSGWWTGRLRGKQGLFPNNYVTKI	-0.158 ± 0.084
PQVPQCKALYAYDAQDTDELSFNANDIIDIIKEDPSGWWTGRLRGKQGLFPNNYGTKI	-0.94 ± 0.11
PQVPQCKALYAYDAQDTDELVFNANDIIDIIKEDPSGWWTGRLRGKQGLFPNNYVTKI	-0.891 ± 0.1
PQVPQCKALYAYDAQDTDELSFNANDIIDIIKEDCSGWWTGRLRGKQGLFPNNYVTKI	-0.066 ± 0.061
PQVPQCKALYAYDAQDTDELSFNANDIIDIIKEDPSGWWTGRLQGKQGLFPNNYVTKI	-0.071 ± 0.036
PQVPQCKALEAYDAQDTDELSFNANDIIDIIKEDPSGWWTGRLRGKQGLFPNNYVTKI	-0.217 ± 0.05
PQVPQCKALYAYDAQDTDELSFNANDIIDIIKEDPSGWWTGRLRGKQGLFPNNAVTKI	-0.055 ± 0.032
PQVPQCKALYAYDAQDTDELSFNANDIIDIVKEDPSGWWTGRLRGKQGLFPNNYVTKI	-0.054 ± 0.034
PQVPQCKALYAYDAQDTDELSFNANDIIDIIKEDPLGWWTGRLRGKQGLFPNNYVTKI	-0.341 ± 0.05
PQVPQCKALYAYDAQDTDELSFTANDIIDIIKEDPSGWWTGRLRGKQGLFPNNYVTKI	-0.01 ± 0.03
PQVPQCKALYAYDHQDTDELSFNANDIIDIIKEDPSGWWTGRLRGKQGLFPNNYVTKI	-0.741 ± 0.26
PQVPQCKWLYAYDAQDTDELSFNANDIIDIIKEDPSGWWTGRLRGKQGLFPNNYVTKI	-1.03 ± 0.31
PQVPQCKALYAYDAQDTDELSFNANDIIDIIKEDPSGWWTGRLRGTQGLFPNNYVTKI	-0.146 ± 0.084
PQVPQCKAWYAYDAQDTDELSFNANDIIDIIKEDPSGWWTGRLRGKQGLFPNNYVTKI	-0.588 ± 0.07
PQVPQCKALYAYDAQDTDELSFNANDIIDIIKEDPSGWWTGRLRGWQGLFPNNYVTKI	-0.569 ± 0.17
PQVPQCKALYAYDAQDTDELSFNANDAIDIIKEDPSGWWTGRLRGKQGLFPNNYVTKI	-0.47 ± 0.057
PQVPQCKALYAYDAQDTDELSFNANDIIDIIKEDPPGWWTGRLRGKQGLFPNNYVTKI	-0.883 ± 0.18

Variant	abundance fitness
PQVPQCKALYAYDAQDTDELSFNANDIIDCIKEDPSGWWTGRLRGKQGLFPNNYVTKI	-0.378 ± 0.04
PQVPQCKALYAYDAQDTDELSFNANDIIDIIKEDPSGWWTGRQRGKQGLFPNNYVTKI	-0.621 ± 0.079
PQVPQCKALYAYDAQDTDELYFNANDIIDIIKEDPSGWWTGRLRGKQGLFPNNYVTKI	-0.756 ± 0.28
PQVPQCKALYAYDAQDTDELSFNANDIIDIIKEDPSGWWTGRLRGKQGIFPNNYVTKI	-0.219 ± 0.077
PQVPQCKALYAYDAQDTDELSFNADDIIDIIKEDPSGWWTGRLRGKQGLFPNNYVTKI	-0.048 ± 0.068
PQVPQCKALYAYYAQDTDELSFNANDIIDIIKEDPSGWWTGRLRGKQGLFPNNYVTKI	-0.209 ± 0.039
PQVPQCKALYAGDAQDTDELSFNANDIIDIIKEDPSGWWTGRLRGKQGLFPNNYVTKI	-0.937 ± 0.072
PQVPQCKALYAYDAQDTDELSFNANDIIDIIKEDPSGWWTYRLRGKQGLFPNNYVTKI	-0.88 ± 0.45
PQVPQCKALYAYDAQDTDALSFNANDIIDIIKEDPSGWWTGRLRGKQGLFPNNYVTKI	-0.288 ± 0.069
PQVPQCKALYAYDAQDTDELSFNANDIIDIIKEDPSGWDTGRLRGKQGLFPNNYVTKI	-0.819 ± 0.15
PQVPQCKALYAYDAQDTDELSFNASDIIDIIKEDPSGWWTGRLRGKQGLFPNNYVTKI	-0.088 ± 0.038
PQVPQCKALYAYDAQDTCELSFNANDIIDIIKEDPSGWWTGRLRGKQGLFPNNYVTKI	-0.05 ± 0.059
PQVPQCKCLYAYDAQDTDELSFNANDIIDIIKEDPSGWWTGRLRGKQGLFPNNYVTKI	-0.196 ± 0.13
PQVPCCKALYAYDAQDTDELSFNANDIIDIIKEDPSGWWTGRLRGKQGLFPNNYVTKI	-0.269 ± 0.095
PEVPQCKALYAYDAQDTDELSFNANDIIDIIKEDPSGWWTGRLRGKQGLFPNNYVTKI	-0.193 ± 0.079
PQVPQHKALYAYDAQDTDELSFNANDIIDIIKEDPSGWWTGRLRGKQGLFPNNYVTKI	-0.839 ± 0.17
PDVPQCKALYAYDAQDTDELSFNANDIIDIIKEDPSGWWTGRLRGKQGLFPNNYVTKI	0.01 ± 0.091
PQVPQCKALYAYDAQDTDEQSFNANDIIDIIKEDPSGWWTGRLRGKQGLFPNNYVTKI	-1.12 ± 0.15
PQVPQCKALYAYDAQDTDELSFNTNDIIDIIKEDPSGWWTGRLRGKQGLFPNNYVTKI	-0.012 ± 0.041
PQVPQCKALYAYDAQDTDELSFNANDIIDIILEDPSGWWTGRLRGKQGLFPNNYVTKI	-0.122 ± 0.038
PQVPQCKALYAYDAQDTDELSFNANDIIDIIKEDPSGWWTGRLRGKQGLFLNNYVTKI	-0.198 ± 0.057
PQVPSCKALYAYDAQDTDELSFNANDIIDIIKEDPSGWWTGRLRGKQGLFPNNYVTKI	-0.065 ± 0.044
PQVPQCKALYAYDAQDTDELSFNANDIIDIIKEDPSGWWTGRLRGKQGLFGNNYVTKI	-0.771 ± 0.066

Variant	abundance fitness
PQVPQCKALYAYDAQDTDELSFNANDIIDIIKEYPSGWWTGRLRGKQGLFPNNYVTKI	-0.27 ± 0.069
PQVPQCKALYAYDAQDTDELSFNANDIIDIIKEDPSGWWTGRYRGKQGLFPNNYVTKI	-0.328 ± 0.08
PQVPQCKALYAYDAQDTDELSMNANDIIDIIKEDPSGWWTGRLRGKQGLFPNNYVTKI	-0.441 ± 0.055
PQVPQCKALYAYQAQDTDELSFNANDIIDIIKEDPSGWWTGRLRGKQGLFPNNYVTKI	-0.018 ± 0.067
PQVPQCKALYAYDAQDTDELSFNANDIIDIIKEDPSGWWTGRLRGKQGLFPNNYVTAI	-0.337 ± 0.05
PQVPQCKALYAYDAQDTDELSFNANDIIDIIKEDSSGWWTGRLRGKQGLFPNNYVTKI	-0.022 ± 0.039
PQVPQCKALYAYDAQDTDELSFNANDIIDIIKEDPSGWWTGRLRGKQGLFPNNYVTKD	-0.089 ± 0.25
PQVPQCKALYAYDAQDTDELSFNANSIIDIIKEDPSGWWTGRLRGKQGLFPNNYVTKI	-0.522 ± 0.065
PQVPQCKALYAYDAGDTDELSFNANDIIDIIKEDPSGWWTGRLRGKQGLFPNNYVTKI	-0.157 ± 0.031
PQVPQCKALYAYDAQDTDELSFNANDIIDIIKEDPSGWWTGRLRGKQGLFPNEYVTKI	-0.078 ± 0.066
PQVPQCKALYAYDAQDTDELSFNANDIIDIIKEDPSGWWTGRLRGKQGVFPNNYVTKI	-0.015 ± 0.056
PQVPQCKALYAYDAQDTDELSFGANDIIDIIKEDPSGWWTGRLRGKQGLFPNNYVTKI	-0.048 ± 0.027
PQVPLCKALYAYDAQDTDELSFNANDIIDIIKEDPSGWWTGRLRGKQGLFPNNYVTKI	-0.135 ± 0.044
PQVPQCKALYATDAQDTDELSFNANDIIDIIKEDPSGWWTGRLRGKQGLFPNNYVTKI	-0.836 ± 0.15
PQVPQCKELYAYDAQDTDELSFNANDIIDIIKEDPSGWWTGRLRGKQGLFPNNYVTKI	-0.674 ± 0.21
PQVPQCKALYAYDAQDTDELSFNANDIIDIIKEDPSGWWTGRLRGKQGLFPNNYQTKI	-1.02 ± 0.12
PQVPQCKALYAYDTQDTDELSFNANDIIDIIKEDPSGWWTGRLRGKQGLFPNNYVTKI	-0.374 ± 0.11
PQVPQCKALYAYDAQDTDELSYNANDIIDIIKEDPSGWWTGRLRGKQGLFPNNYVTKI	-0.714 ± 0.41
PQVPQCKALYAYDATDTDELSFNANDIIDIIKEDPSGWWTGRLRGKQGLFPNNYVTKI	-0.054 ± 0.061
PQVPKCKALYAYDAQDTDELSFNANDIIDIIKEDPSGWWTGRLRGKQGLFPNNYVTKI	-0.075 ± 0.088
PQVPQCKALYAYDAQDTDELSFNANDIIDIIKEDPSGWWTGRLRGKQGLFVNNYVTKI	-0.94 ± 0.12
PNVPQCKALYAYDAQDTDELSFNANDIIDIIKEDPSGWWTGRLRGKQGLFPNNYVTKI	0.068 ± 0.1
PQVPQCKALYAYDAQDTDELSFNANDIIDRIKEDPSGWWTGRLRGKQGLFPNNYVTKI	-1.01 ± 0.067

Variant	abundance fitness
PQVPQCKALYAYDAQDTDELSFNAMDIIDIIKEDPSGWWTGRLRGKQGLFPNNYVTKI	-0.151 ± 0.051
PQVPQCKALYAYDAQDTDEHSFNANDIIDIIKEDPSGWWTGRLRGKQGLFPNNYVTKI	-0.977 ± 0.49
PQVPQCKALYAYDAQDTDELSFNANDIIDIIKEDPSGWWLGRLRGKQGLFPNNYVTKI	-0.058 ± 0.041
PQVPQCKALYAYDAQDTDELSGNANDIIDIIKEDPSGWWTGRLRGKQGLFPNNYVTKI	-0.954 ± 0.095
PQVPQCKALYAYDAQDCDELSFNANDIIDIIKEDPSGWWTGRLRGKQGLFPNNYVTKI	-0.128 ± 0.063
PQVPQCKALYAYDAQDTDELSFNANDIIDIIKEDQSGWWTGRLRGKQGLFPNNYVTKI	-0.018 ± 0.049
PQVPQCKALYAYDAQDTDELSFNANDIIDIIKEDPSEWWTGRLRGKQGLFPNNYVTKI	-0.481 ± 0.049
PQVPQCKALYAYDDQDTDELSFNANDIIDIIKEDPSGWWTGRLRGKQGLFPNNYVTKI	-0.797 ± 0.19
PQVPQCKALYAYDAQDTDELSFNANDIIDIIKEDPMGWWTGRLRGKQGLFPNNYVTKI	-0.284 ± 0.19
PQVPQCVALYAYDAQDTDELSFNANDIIDIIKEDPSGWWTGRLRGKQGLFPNNYVTKI	-0.057 ± 0.042
PQVPQCKALYAYDAQDTDELSFNANDIIDIIKEDPSGWWTHRLRGKQGLFPNNYVTKI	-0.83 ± 0.28
PQVPQCKALYAYDAQDTDELSFNANDIIDIIKEDPSGWWEGRLRGKQGLFPNNYVTKI	-0.203 ± 0.092
PQVPQCKALYAYDAQDTDELSFNANDIIDIIKEDPSGWWTGRLSGKQGLFPNNYVTKI	-0.08 ± 0.055
PQVPQCKALYAYDAQDTDELSFNANDIIDIIKEDPSGWWTGRLWGKQGLFPNNYVTKI	-0.467 ± 0.12
PQVPQCKALYAYDAQDTDELSFNANDIIDIIKEDPSGWWTGRLRGKTGLFPNNYVTKI	0.005 ± 0.087
PQVPQCEALYAYDAQDTDELSFNANDIIDIIKEDPSGWWTGRLRGKQGLFPNNYVTKI	-0.264 ± 0.069
PQVPQCKALYAYDAQDTDELSFNANDIIDIIKEDPSGWWTGRLRGKQGLFPNNYVWKI	-0.122 ± 0.076
PQVPQCKALYAYDAQDTDELSFNANDIIDIIKEDPSGWWTGRLRGKQGLFPHNYVTKI	-0.087 ± 0.1
PQVPWCKALYAYDAQDTDELSFNANDIIDIIKEDPSGWWTGRLRGKQGLFPNNYVTKI	-0.281 ± 0.063
PLVPQCKALYAYDAQDTDELSFNANDIIDIIKEDPSGWWTGRLRGKQGLFPNNYVTKI	-0.106 ± 0.07
PQVPECKALYAYDAQDTDELSFNANDIIDIIKEDPSGWWTGRLRGKQGLFPNNYVTKI	-0.467 ± 0.081
PQVPQCKALYAYDAQDTDELSFNANDIIDIIKEDPSGWWTGRLRGKQGLFPNWYVTKI	-0.151 ± 0.058
